For this assay, the target named is transportin 1 (TNPO1) (human (endogenous in HeLa)) (UniProt Q92973). The assay is described as follows: proximity ligation.
Sequence of UniProt Q92973 (Q92973 whole entry): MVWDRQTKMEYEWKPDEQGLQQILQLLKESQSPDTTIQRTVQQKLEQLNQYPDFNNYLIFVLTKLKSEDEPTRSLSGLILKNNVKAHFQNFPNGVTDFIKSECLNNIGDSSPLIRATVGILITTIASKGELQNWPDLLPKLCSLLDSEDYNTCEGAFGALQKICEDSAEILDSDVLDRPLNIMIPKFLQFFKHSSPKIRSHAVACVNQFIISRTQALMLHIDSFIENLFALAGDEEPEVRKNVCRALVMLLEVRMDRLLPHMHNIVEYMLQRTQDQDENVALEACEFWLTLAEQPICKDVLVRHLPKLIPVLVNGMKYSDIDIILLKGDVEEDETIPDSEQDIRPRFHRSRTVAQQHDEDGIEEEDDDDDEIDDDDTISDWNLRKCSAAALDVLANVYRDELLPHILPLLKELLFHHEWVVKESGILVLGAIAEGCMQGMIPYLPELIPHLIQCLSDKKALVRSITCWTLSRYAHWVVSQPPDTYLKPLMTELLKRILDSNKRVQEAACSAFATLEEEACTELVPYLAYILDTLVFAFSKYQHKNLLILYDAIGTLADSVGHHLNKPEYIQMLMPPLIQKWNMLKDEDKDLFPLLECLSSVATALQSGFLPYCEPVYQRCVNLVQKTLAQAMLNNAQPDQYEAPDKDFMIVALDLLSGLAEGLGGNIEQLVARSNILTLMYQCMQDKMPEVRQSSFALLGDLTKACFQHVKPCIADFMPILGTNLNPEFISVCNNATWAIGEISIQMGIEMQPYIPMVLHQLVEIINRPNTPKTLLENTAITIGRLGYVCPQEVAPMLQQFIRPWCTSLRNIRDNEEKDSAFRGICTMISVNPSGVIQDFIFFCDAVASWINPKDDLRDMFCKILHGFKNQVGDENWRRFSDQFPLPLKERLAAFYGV

“HIV-1 Rev (regulator of expression of virion proteins), HA-tagged (from UniProt P04618 1-116) (natural protein)” displayed a PLA puncta per cell (puncta per cell) of 26.

Source of the values: PMC7534208.
